Non-standard residues stand in square brackets, D forms with d. No end group written: not given here.

Data set [1] concerns MDA-MB-231 cells. Description: CCK-8 cell viability. The format is cell-based, human. To be noted: 0, 10, 20, 40, 80, 160 µM, 36 h, n = 3. As to the method: (§1) Fig. 2 The screening of the FOXM1-interacting peptide M1-20. A The diagram of peptide array (P1-P9) in which peptides (20-mer) covering FOXM1_689-748 with a shifting window of five residues were conjugated to the cell-penetrating peptide TAT and produced by solid-phase peptide synthesis. The P1-P9 peptides were biotin-labeled respectively and added in MDA-MB-231 cell lysates (500 μg) which were incubated with Streptavidin Agarose Resin to pull down biotin-peptide/protein complexes. Biotin and FOXM1 proteins in samples were detected by Western Blotting with certain antibodies. 10% of cell lysates (50 μg) were used as input controls. […] The absorbance at 450 nm and the relative cell viability in each well was calculated. […] GST-tag and Biotin-tag were detected by Western Blotting with certain antibodies. […] E The curve represented the quantification of binding affinity between GFP-labeled FOXM1_1-138 and P5 or P5mut by Microscale Thermophoresis (MST, Monolith NT.115, NanoTemper). Data points indicated the fraction of FOXM1_1-138-bound peptide (ΔNormal/Amplitude) at different concentrations, and curves indicated the calculated fits. […] F The biotin signals indicated the peptide stability of P5 and M1-20 in HEK293T cell lysates analyzed by Western Blotting. The levels of peptide were quantified by Image J software and graphed with GraphPad Prism 9 (n = 3). […]

The target in data set [2] is T1, endogenous FOXM1 (Homo sapiens, UniProt Q08050).
T1 construct: endogenous in cells; host or cells: MDA-MB-231 cell lysates
T1 sequence (Q08050 1-763): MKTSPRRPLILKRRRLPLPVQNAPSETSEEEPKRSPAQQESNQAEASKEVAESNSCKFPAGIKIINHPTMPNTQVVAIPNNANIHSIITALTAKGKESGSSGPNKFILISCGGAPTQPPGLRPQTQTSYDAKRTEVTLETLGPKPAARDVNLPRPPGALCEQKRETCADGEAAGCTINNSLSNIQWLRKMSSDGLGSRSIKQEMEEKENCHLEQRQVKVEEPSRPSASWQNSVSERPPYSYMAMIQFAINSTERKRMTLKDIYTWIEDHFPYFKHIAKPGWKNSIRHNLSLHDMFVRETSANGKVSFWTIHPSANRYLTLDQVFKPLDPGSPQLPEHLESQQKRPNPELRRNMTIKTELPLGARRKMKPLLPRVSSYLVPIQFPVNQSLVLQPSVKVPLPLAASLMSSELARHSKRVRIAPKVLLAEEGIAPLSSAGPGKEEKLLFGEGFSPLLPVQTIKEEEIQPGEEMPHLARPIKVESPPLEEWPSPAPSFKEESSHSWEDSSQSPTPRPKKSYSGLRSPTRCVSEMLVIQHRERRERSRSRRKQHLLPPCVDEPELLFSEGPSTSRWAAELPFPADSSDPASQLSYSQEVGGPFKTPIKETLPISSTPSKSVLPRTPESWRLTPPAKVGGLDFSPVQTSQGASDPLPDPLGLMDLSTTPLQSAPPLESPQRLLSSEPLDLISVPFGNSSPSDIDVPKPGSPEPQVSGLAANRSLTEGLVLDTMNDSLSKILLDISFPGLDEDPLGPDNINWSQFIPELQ
Description: Biotin-peptide pull-down of endogenous FOXM1 from MDA-MB-231 cell lysates. The format is binding. The following applies: biotin-labeled peptide, MDA-MB-231 cell lysates (500 μg), Streptavidin Agarose Resin, Western Blotting. How it is done: as §1
For orientation: In western blotting, separated proteins are transferred to a membrane and probed.

In data set [3] the target is T2, FOXM1_1-138 (Homo sapiens, UniProt Q08050).
T2 construct: The cDNA of FOXM1(1-138aa) was PCR amplified from pCMV-FOXM1 plasmid; EGFP (C); His (pET-32a vector; Ni-Sepharose purification); made in house; host or cells: E. coli Rosetta/DE3
T2 sequence (Q08050 1-138 isoform Q08050-2): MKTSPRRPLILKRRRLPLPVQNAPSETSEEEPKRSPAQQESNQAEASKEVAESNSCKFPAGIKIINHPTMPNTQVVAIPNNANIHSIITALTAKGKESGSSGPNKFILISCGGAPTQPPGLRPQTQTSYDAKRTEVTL
Kind of data set: Biotin-peptide pull-down of recombinant FOXM1_1-138. The format is binding. The following applies: biotin-labeled peptide (10 μg), recombinant protein (50 μg), Streptavidin Agarose Resin. How it is done:
as §1

The target in data set [4] is T2, FOXM1_1-138. Kind of data set: Microscale thermophoresis binding of peptide to GFP-labeled FOXM1_1-138. To be noted: MST, Monolith NT.115, peptide 0.030 to 1000 μM in PBS with 0.05% Tween-20, 25 °C, mean of three independent measurements. As to the method:
Measurements were performed by Monolith NT.115 instrument (NanoTemper). The data were analyzed by MO. Affinity Analysis v2.3 NT software (NanoTemper) to determine interaction parameters. Details were described in the supplemental materials and methods.
as §1, with “The P1-P9 peptides were biotin-labeled respectively and added in MDA-MB-231 cell lysates (500 μg) which were incubated with Streptavidin Agarose Resin to pull down biotin-peptide/protein complexes.” left out, “antibodies.” for “antibodies. 10% of cell lysates (50 μg) were used as input controls.”
In general terms: In MST a laser heats a spot of the sample, and binding alters the fluorescence response.

The target in data set [5] is T3, GFP-labeled FOXM1_(1-138) (human, UniProt Q08050-3 1-138).
T3 construct: The fluorescent partner of the MST; Details are in the supplemental materials and methods
T3 sequence (looked up): T2 sequence (Q08050 1-138 isoform Q08050-2)
Kind of data set: MST; GFP-labeled FOXM1(1-138) with peptide at different concentrations; Monolith NT.115 (NanoTemper), MO.Affinity Analysis v2.3; three independent measurements. To be noted: both partners purified.

Data set [6] concerns the target T4, His-FOXM1 (UniProt Q08050-2 1-748).
T4 sequence: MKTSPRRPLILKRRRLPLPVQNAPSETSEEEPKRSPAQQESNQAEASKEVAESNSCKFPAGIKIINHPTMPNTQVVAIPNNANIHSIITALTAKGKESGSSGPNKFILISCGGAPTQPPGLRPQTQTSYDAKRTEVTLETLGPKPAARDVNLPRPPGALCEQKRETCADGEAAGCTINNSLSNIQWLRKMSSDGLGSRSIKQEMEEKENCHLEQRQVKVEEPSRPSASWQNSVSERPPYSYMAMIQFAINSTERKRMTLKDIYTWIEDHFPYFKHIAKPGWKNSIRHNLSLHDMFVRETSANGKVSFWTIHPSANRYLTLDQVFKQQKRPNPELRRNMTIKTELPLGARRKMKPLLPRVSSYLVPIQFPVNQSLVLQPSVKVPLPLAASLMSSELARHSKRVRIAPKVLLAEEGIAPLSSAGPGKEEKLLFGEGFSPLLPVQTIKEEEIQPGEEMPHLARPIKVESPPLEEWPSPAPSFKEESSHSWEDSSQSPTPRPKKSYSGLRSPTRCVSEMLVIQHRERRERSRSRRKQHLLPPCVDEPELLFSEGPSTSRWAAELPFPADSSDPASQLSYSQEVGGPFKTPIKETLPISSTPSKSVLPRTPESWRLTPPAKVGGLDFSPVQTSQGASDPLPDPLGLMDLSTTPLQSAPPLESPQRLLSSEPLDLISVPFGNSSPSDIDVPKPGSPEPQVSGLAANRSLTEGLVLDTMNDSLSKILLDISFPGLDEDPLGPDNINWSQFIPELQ
Description: EMSA; plus M1-20 peptide (5 and 10 uM in legend; 0.5, 1 and 2 uM in Suppl. Methods); DNA binding not disrupted; 20 mM Tris-Cl pH 7.6, 50 mM KCl, 10% glycerol, 0.5 mM EDTA, 0.2 mM DTT, 30 min on ice; 4% native PAGE in 0.5x TBE. The following applies: protein: recombinant; tags: His; label: 5'-FAM on forward strand (hot); blunt. (A gel shift assay detects complexes by their altered migration in electrophoresis.)

“P5: the sequence 709-728aa of FOXM1, 20-mer conjugated with TAT cell-penetrating sequence; natural parent peptide of M1-20”: the “inhibition of MDA-MB-231 cells in the P1-P9 library screen” value in data set [1] is “significantly inhibited MDA-MB-231 breast cancer cells in a dose-dependent manner”. The “interaction with endogenous FOXM1 (pull-down)” value in data set [2] is “interacted with endogenous FOXM1 with variable affinities”. Moreover, in data set [3], the “binding to recombinant FOXM1_1-138 (pull-down)” value is “bind to recombinant GST-FOXM1_1-138 protein”.

As for “P5mut: P5 with three residues mutated (L721A, I723A, S724A) (LDTMNDSLSKILADAAFPGL; also: conjugated to TAT cell-penetrating sequence (as parent P5))”, the “KD, binding affinity to FOXM1_1-138” value in data set [4] is “unmeasurable”.

For the molecule LDTMNDSLSKILLDISFPGL (also: conjugated to TAT cell-penetrating sequence) [P5], the affinity in data set [5], expressed as Kd, was 43.1 µM.

Take [dL]G[dP][dF][dS][dI][dD][dL][dL][dI][dK][dS][dL][dS][dD][dN][dM][dT][dD][dL] [M1-20]: binding in data set [5] was put at a Kd of 5.66 µM.

B1: FAM-labeled FOXM1 EMSA probe (dsDNA)
DNA 1: TTTGTTTATTTGTTTGTTTATTTG
DNA 2: CAAATAAACAAACAAATAAACAAA
Turning to B1, the binding result in data set [6] is on record as “binds”.

As to [dL]G[dP][dF][dA][dA][dD][dA][dL][dI][dK][dS][dL][dS][dD][dN][dM][dT][dD][dL] [M1-20mut], binding in data set [5] was put at a Kd of 386 µM.

For the origin of these results see PMC10439915, “Development of an interfering peptide M1-20 with potent anti-cancer effects by targeting FOXM1” (Cell Death & Disease, 2023).
